For orientation: Kd means the equilibrium constant for the complex coming apart. Higher therefore signals weaker binding.

These results are taken from PMC8497506, “Modular fluorescent nanoparticle DNA probes for detection of peptides and proteins”.

One data set addresses Myoglobin (UniProt P68082 2-154). As to the kind of experiment: plate binding assay (ELONA); off-target; 10 mM HEPES, 1.2 mM NaCl (so in the source), 5 mM MgCl2, 5 mM KCl, pH 7.4, 0.1% Tween-20, 1% sheared salmon sperm DNA, 300 uM dextran sulfate; 60 min; temperature not stated. The conditions noted are these: protein: commercial; label: fluorescent FluoSphere; 24 bp duplex of strand 1 5' end with handle; rest single-stranded aptamer.

A further data set deals with VEGF (UniProt P15692-4 27-191). Nature of the data set: plate binding assay (ELONA); EC50, FluoSphere probe; 10 mM HEPES, 1.2 mM NaCl (so in the source), 5 mM MgCl2, 5 mM KCl, pH 7.4, 0.1% Tween-20, 1% sheared salmon sperm DNA, 300 uM dextran sulfate; 60 min; temperature not stated. As to conditions: protein: commercial; chain copies: 2; label: fluorescent FluoSphere; 24 bp duplex of strand 1 5' end with handle; rest single-stranded aptamer.

Data set [1] addresses T1, HHH peptide (synthetic).
T1 chain: GHHHG
As to the kind of experiment: plate binding assay (ELONA); EC50, Streptavidin APC; 10 mM HEPES, 1.2 mM NaCl (so in the source), 5 mM MgCl2, 5 mM KCl, pH 7.4, 0.1% Tween-20, 1% sheared salmon sperm DNA, 300 uM dextran sulfate; 60 min; temperature not stated. The conditions noted are these: tags: N-terminal Cys-biotin-PEG2; label: streptavidin conjugates or HRP.

Data set [2] concerns the target T1, HHH peptide. Nature of the data set: plate binding assay (ELONA); EC50, Streptavidin SureLight APC; 10 mM HEPES, 1.2 mM NaCl (so in the source), 5 mM MgCl2, 5 mM KCl, pH 7.4, 0.1% Tween-20, 1% sheared salmon sperm DNA, 300 uM dextran sulfate; 60 min; temperature not stated. As to conditions: tags: N-terminal Cys-biotin-PEG2; label: streptavidin conjugates or HRP.

The target of data set [3] is T1, HHH peptide. Nature of the data set: plate binding assay (ELONA); EC50, Streptavidin AlexaFluor 647; 10 mM HEPES, 1.2 mM NaCl (so in the source), 5 mM MgCl2, 5 mM KCl, pH 7.4, 0.1% Tween-20, 1% sheared salmon sperm DNA, 300 uM dextran sulfate; 60 min; temperature not stated. The conditions noted are these: tags: N-terminal Cys-biotin-PEG2; label: streptavidin conjugates or HRP.

The target of data set [4] is T1, HHH peptide. As to the kind of experiment: plate binding assay (ELONA); streptavidin conjugate; Fig. S4B legend calls it EC50; 10 mM HEPES, 1.2 mM NaCl (so in the source), 5 mM MgCl2, 5 mM KCl, pH 7.4, 0.1% Tween-20, 1% sheared salmon sperm DNA, 300 uM dextran sulfate; 60 min; temperature not stated. As to conditions: tags: N-terminal Cys-biotin-PEG2; label: streptavidin conjugates or HRP.

Data set [5] concerns the target T1, HHH peptide. Nature of the data set: plate binding assay (ELONA); EC50, FluoSphere probe; 10 mM HEPES, 1.2 mM NaCl (so in the source), 5 mM MgCl2, 5 mM KCl, pH 7.4, 0.1% Tween-20, 1% sheared salmon sperm DNA, 300 uM dextran sulfate; 60 min; temperature not stated. The conditions noted are these: tags: N-terminal Cys-biotin-PEG2; label: fluorescent FluoSphere; 24 bp duplex of strand 1 5' end with handle; rest single-stranded aptamer.

The target in data set [6] is T2, Her2-his (UniProt P04626 23-652). As to the kind of experiment: plate binding assay (ELONA); EC50, FluoSphere probe, avidity; 10 mM HEPES, 1.2 mM NaCl (so in the source), 5 mM MgCl2, 5 mM KCl, pH 7.4, 0.1% Tween-20, 1% sheared salmon sperm DNA, 300 uM dextran sulfate; 60 min; temperature not stated. As to conditions: protein: commercial; tags: His tag; label: fluorescent FluoSphere; 24 bp duplex of strand 1 5' end with handle; rest single-stranded aptamer.

Data set [7] concerns the target T2, Her2-his. Nature of the data set: plate binding assay (ELONA); EC50, Qdot core; 10 mM HEPES, 1.2 mM NaCl (so in the source), 5 mM MgCl2, 5 mM KCl, pH 7.4, 0.1% Tween-20, 1% sheared salmon sperm DNA, 300 uM dextran sulfate; 60 min; temperature not stated. As to conditions: protein: commercial; tags: His tag; label: Qdot 655; 24 bp duplex of strand 1 5' end with handle; rest single-stranded aptamer.

Data set [8] addresses T2, Her2-his. Nature of the data set: plate binding assay (ELONA); about twofold lower than pre-annealed probe; 10 mM HEPES, 1.2 mM NaCl (so in the source), 5 mM MgCl2, 5 mM KCl, pH 7.4, 0.1% Tween-20, 1% sheared salmon sperm DNA, 300 uM dextran sulfate; 60 min; temperature not stated. The conditions noted are these: protein: commercial; tags: His tag; label: fluorescent FluoSphere.

Data set [9] deals with T1, HHH peptide. As to the kind of experiment: plate binding assay (ELONA); EC50, streptavidin conjugate; 10 mM HEPES, 1.2 mM NaCl (so in the source), 5 mM MgCl2, 5 mM KCl, pH 7.4, 0.1% Tween-20, 1% sheared salmon sperm DNA, 300 uM dextran sulfate; 60 min; temperature not stated. The conditions noted are these: tags: N-terminal Cys-biotin-PEG2; label: streptavidin conjugate.

In data set [10] the target is T1, HHH peptide. As to the kind of experiment: plate binding assay (ELONA); 10 mM HEPES, 1.2 mM NaCl (so in the source), 5 mM MgCl2, 5 mM KCl, pH 7.4, 0.1% Tween-20, 1% sheared salmon sperm DNA, 300 uM dextran sulfate; 60 min; temperature not stated. The conditions noted are these: tags: N-terminal Cys-biotin-PEG2; label: fluorescent FluoSphere; 24 bp duplex of strand 1 5' end with handle; rest single-stranded aptamer.

B1: VEGF aptamer annealed to DBCO-P7 handle on nanoparticle (mixed)
DNA 1: CAAGCAGAAGACGGCATACGAGATCCCGTCTTCCAGACAAGAGTGCAGGGGTGTAGATCTCGGTGGTCGCCGTATCATT
DNA 2: ATCTCGTATGCCGTCTTCTGCTTG
modifications: handle 3' iSp9-DBCO coupled to azide-PEG
Consider B1, for which the binding result with Myoglobin is listed as “no binding”. Besides, the “apparent K (half saturation)” value in the data set with VEGF stood at 5.5 nM.

B2: Biotin-B1 (ssDNA)
DNA: CATGCTTCCCCAGGGAGATGGTTTGCCGGTGGGCAGGTTTAGGGTCTGCTCGGGATTGCGGAGGAACATGCGTCGCAAAC
modifications: 5' biotin
In the case of B2, the “apparent K (half saturation)” value stood at 28 nM with HHH peptide [1], 9.9 nM with HHH peptide [2] and 43 nM in the data set with HHH peptide [3]. Also, in the data set with HHH peptide [4], the affinity, expressed as Kd, was 55 nM.

B3: H3T annealed to DBCO-P7 handle on nanoparticle (mixed)
DNA 1: CAAGCAGAAGACGGCATACGAGATGTTTGCCGGTGGGCAGGTTTAGGGTCTGCTCGGGATTGCGGAGGAACATGCGTCGCAAACGTGTAGATCTCGGTGGTCGCCGTATCATT
DNA 2: ATCTCGTATGCCGTCTTCTGCTTG
modifications: handle 3' iSp9-DBCO coupled to azide-PEG
For the molecule B3, the “apparent K (half saturation)” value in the data set with HHH peptide [5] came out at 12 nM.

B4: P7-B1 annealed to DBCO-P7 handle on nanoparticle (mixed)
DNA 1: CAAGCAGAAGACGGCATACGAGATCATGCTTCCCCAGGGAGATGGTTTGCCGGTGGGCAGGTTTAGGGTCTGCTCGGGATTGCGGAGGAACATGCGTCGCAAACGTGTAGATCTCGGTGGTCGCCGTATCATT
DNA 2: ATCTCGTATGCCGTCTTCTGCTTG
modifications: handle 3' iSp9-DBCO coupled to azide-PEG
Regarding B4, the “apparent K (half saturation)” value in the data set with HHH peptide [5] stood at 2.7 nM; with Her2-his [6] it was 5.2 nM.

B5: P7-B1 annealed to DBCO-P7 handle on Qdot 655 (mixed)
DNA 1: B4 DNA 1
DNA 2: ATCTCGTATGCCGTCTTCTGCTTG
modifications: handle 3' iSp9-DBCO coupled to azide-PEG
With B5, the “apparent K (half saturation)” value with Her2-his [7] was 55 nM.

B6: DBCO-B1 directly conjugated to nanoparticle (ssDNA)
DNA: B4 DNA 1
modifications: 5' DBCO-C7 coupled to azide-PEG
B6: the binding result with Her2-his [8] is “binds”.

B7: Biotin-H3T (ssDNA)
DNA: GTTTGCCGGTGGGCAGGTTTAGGGTCTGCTCGGGATTGCGGAGGAACATGCGTCGCAAAC
modifications: 5' biotin
For B7, the “apparent K (half saturation)” value with HHH peptide [9] was 30 nM.

B8: Her2 aptamer annealed to DBCO-P7 handle on nanoparticle (mixed)
DNA 1: CAAGCAGAAGACGGCATACGAGATTCTAAAAGGATTCTTCCCAAGGGGATCCAATTCAAACAGCGTGTAGATCTCGGTGGTCGCCGTATCATT
DNA 2: ATCTCGTATGCCGTCTTCTGCTTG
modifications: handle 3' iSp9-DBCO coupled to azide-PEG
Turning to B8, in the data set with HHH peptide [10], the binding result is “no binding”.
